The values below come from patent publication EP4034238B1 (Centro Nacional de Investigaciones Cardiovasculares Carlos …, dated 2025).

Assay [1] concerns the target T1, ALDH4A1-FLAG protein (mouse ALDH4A1, C-Flag tag) (mouse, UniProt Q8CHT0 24-562, limits assumed).
T1 construct: Purified on anti-FLAG M2 gel and coated at 5 ug/ml in the ELISAs; used as lysate of transfected HEK293T cells in the IP; also called murine ALDH4A1-FLAG; not shown: C-terminal FLAG tag
T1 sequence (looked up): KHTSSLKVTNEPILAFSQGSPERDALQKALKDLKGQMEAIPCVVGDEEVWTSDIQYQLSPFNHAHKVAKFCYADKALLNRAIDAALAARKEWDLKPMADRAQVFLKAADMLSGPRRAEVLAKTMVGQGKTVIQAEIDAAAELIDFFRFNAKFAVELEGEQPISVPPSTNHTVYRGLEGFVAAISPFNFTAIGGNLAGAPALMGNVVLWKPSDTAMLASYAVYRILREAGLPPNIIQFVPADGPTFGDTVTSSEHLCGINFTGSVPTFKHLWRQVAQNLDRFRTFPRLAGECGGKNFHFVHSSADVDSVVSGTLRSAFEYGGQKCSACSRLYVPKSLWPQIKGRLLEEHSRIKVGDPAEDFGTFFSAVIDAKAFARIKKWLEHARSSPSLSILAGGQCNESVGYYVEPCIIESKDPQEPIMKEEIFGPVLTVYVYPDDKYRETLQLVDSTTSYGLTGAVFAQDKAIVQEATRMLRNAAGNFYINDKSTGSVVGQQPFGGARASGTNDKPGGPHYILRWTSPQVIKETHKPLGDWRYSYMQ
Briefly: ELISA screen for ALDH4A1 reactivity (mark in Table 1). For orientation: In an ELISA, binding on a coated surface is turned into a signal by an enzyme label.

In assay [2] the target is T2, Aldehyde Dehydrogenase 4 Family Member A1 (ALDH4A1), endogenous mouse protein from aorta lysate (mouse, UniProt Q8CHT0 24-562).
T2 construct: Native protein precipitated from mouse aorta lysates; also called ALDH4A1 mitochondrial protein
T2 sequence (looked up): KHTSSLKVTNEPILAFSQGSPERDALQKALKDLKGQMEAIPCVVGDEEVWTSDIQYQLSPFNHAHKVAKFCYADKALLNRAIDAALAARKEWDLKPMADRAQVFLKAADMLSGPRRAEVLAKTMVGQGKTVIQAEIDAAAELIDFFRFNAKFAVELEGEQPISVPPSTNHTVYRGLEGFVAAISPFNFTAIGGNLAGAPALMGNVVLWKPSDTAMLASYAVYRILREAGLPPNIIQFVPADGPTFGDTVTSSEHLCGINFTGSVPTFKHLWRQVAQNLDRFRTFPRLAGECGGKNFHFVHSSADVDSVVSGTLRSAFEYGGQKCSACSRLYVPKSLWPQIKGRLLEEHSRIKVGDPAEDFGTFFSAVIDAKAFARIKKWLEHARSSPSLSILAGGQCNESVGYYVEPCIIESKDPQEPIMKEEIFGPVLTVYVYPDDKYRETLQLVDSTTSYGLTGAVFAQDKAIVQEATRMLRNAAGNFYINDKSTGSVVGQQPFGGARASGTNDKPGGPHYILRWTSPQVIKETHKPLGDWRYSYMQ
Briefly: deep proteomics analysis (IP + mass spectrometry).

B1: A12 antibody (antibody, human IgG1, V domains shown)
VH: EVQLVESGGDLVKPGGSLKLSCAASGFTFSSYGMSWVRQTPDKRLEWVATISSGGSYTYYPDSVKGRFTISRDNAKNTLYLQMSSLKSEDTAMYYCARPHVVTTPGWYFDVWGTGTTVTVSS
VL: DIVMTQSPATLSVTPGDRVSLSCRASQSISDYLHWYQQKSHESPRLLIKYASQSISGIPSRFSGSGSGSDFTLSINSVEPEDVGVYYCQNGHSFPLTFGAGTKLELK
notes: also called huA12-IgG1
Turning to B1, the binding result in assay [1] and in assay [2] was “binds” throughout.
